Laboratory results published in article PMC5339343, “Evaluation of Rint1 as a modifier of intestinal tumorigenesis and cancer risk” (PLoS ONE, 2017).

Columns and labels:
[1] = biological target: T1, FLAG-tagged full-length human RINT1 I152M; I168T (human, UniProt Q6NUQ1 1-792, I152M | I168T); experiment: co-IP; FLAG-RINT1 plasmids co-transfected with the UVRAG plasmid into HEK293T; lysate in TNE buffer (10 mM Tris acetate, 0.5% NP-40, 2 mM EDTA); anti-FLAG M2 affinity gel overnight, eluted with FLAG peptide; blot for UVRAG, quantified; details: partners not purified
T1 construct: The results sentence on UVRAG prints I152T;I168T; the methods made only I152M and I168T together; also called RINT1 n.456A>G; n.503T>C (I152M and I168T); source: HEK293T, transfected, in lysate

[2] = biological target: T2, FLAG-tagged full-length human RINT1 I152M (human, UniProt Q6NUQ1 1-792, I152M); experiment: as above; details: partners not purified
T2 construct: The change copies a variant of the B6 mouse Rint1 allele into human RINT1; The results sentence on UVRAG prints I152T; the methods made only I152M; also called RINT1 n.456A>G (I152M); RINT1 I152M allele; source: HEK293T, transfected, in lysate
T2 sequence (Q6NUQ1 whole entry I152M): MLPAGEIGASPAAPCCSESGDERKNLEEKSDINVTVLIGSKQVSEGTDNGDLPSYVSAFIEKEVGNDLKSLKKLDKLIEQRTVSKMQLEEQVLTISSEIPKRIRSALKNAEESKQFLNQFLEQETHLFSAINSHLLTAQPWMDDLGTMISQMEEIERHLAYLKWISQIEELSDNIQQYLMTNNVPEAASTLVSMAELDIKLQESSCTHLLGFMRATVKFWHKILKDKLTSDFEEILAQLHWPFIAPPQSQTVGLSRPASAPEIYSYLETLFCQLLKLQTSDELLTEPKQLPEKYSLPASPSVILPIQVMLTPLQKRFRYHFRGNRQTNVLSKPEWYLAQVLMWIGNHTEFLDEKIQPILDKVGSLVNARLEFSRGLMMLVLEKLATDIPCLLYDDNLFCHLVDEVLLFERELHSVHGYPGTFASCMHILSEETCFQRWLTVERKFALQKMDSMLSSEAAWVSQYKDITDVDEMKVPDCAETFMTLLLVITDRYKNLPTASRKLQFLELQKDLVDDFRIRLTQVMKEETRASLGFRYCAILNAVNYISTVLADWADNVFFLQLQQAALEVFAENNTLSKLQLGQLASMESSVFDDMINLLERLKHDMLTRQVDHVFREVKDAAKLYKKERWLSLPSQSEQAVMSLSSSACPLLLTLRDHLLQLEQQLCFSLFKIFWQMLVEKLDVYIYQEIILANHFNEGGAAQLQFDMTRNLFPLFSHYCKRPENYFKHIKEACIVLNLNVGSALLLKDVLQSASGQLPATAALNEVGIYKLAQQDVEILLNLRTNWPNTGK

T1 sequence (Q6NUQ1 whole entry I152M/I168T): as the sequence (Q6NUQ1 whole entry I152M) above, with I168T counted along it

B1: UVRAG expressed from pCl-neo-HA-hUVRAG (natural protein, human, UniProt Q9P2Y5 1-699, looked up)
chain: MSASASVGGPVPQPPPGPAAALPPGSAARALHVELPSQQRRLRHLRNIAARNIVNRNGHQLLDTYFTLHLCSTEKIYKEFYRSEVIKNSLNPTWRSLDFGIMPDRLDTSVSCFVVKIWGGKENIYQLLIEWKVCLDGLKYLGQQIHARNQNEIIFGLNDGYYGAPFEHKGYSNAQKTILLQVDQNCVRNSYDVFSLLRLHRAQCAIKQTQVTVQKIGKEIEEKLRLTSTSNELKKKSECLQLKILVLQNELERQKKALGREVALLHKQQIALQDKGSAFSAEHLKLQLQKESLNELRKECTAKRELFLKTNAQLTIRCRQLLSELSYIYPIDLNEHKDYFVCGVKLPNSEDFQAKDDGSIAVALGYTAHLVSMISFFLQVPLRYPIIHKGSRSTIKDNINDKLTEKEREFPLYPKGGEKLQFDYGVYLLNKNIAQLRYQHGLGTPDLRQTLPNLKNFMEHGLMVRCDRHHTSSAIPVPKRQSSIFGGADVGFSGGIPSPDKGHRKRASSENERLQYKTPPPSYNSALAQPVTTVPSMGETERKITSLSSSLDTSLDFSKENKKKGEDLVGSLNGGHANVHPSQEQGEALSGHRATVNGTLLPSEQAGSASVQLPGEFHPVSEAELCCTVEQAEEIIGLEATGFASGDQLEAFNCIPVDSAVAVECDEQVLGEFEEFSRRIYALNENVSSFRRPRRSSDK
notes: UVRAG, human (hUVRAG), from the plasmid pCl-neo-HA-hUVRAG (Itakura et al. 2008); Detected with an anti-UVRAG antibody; source: HEK293T, transfected, in lysate
fold change of UVRAG co-immunoprecipitation against wild-type RINT1 [1]: ≥ 2 fold | fold change of UVRAG co-immunoprecipitation against wild-type RINT1 [2]: ≥ 2 fold
